From patent US20230105029A1 (CHIA TAI TIANQING PHARMACEUTICAL GROUP, published 2023) come the findings set out here.

For test [1], the target named is T1, recombinant human IL4Rα-his protein (in house made) (human, UniProt P24394 26-232, limits assumed).
T1 construct: also called Human IL4Ra-his
Kind of test: capture ELISA: antibody captured on anti-IgG Fc plate, biotin human IL4Rα-his detected. The protocol:
(§1) Plates were washed once with wash buffer (PBS+0.05% w/v Tween-20, PBST) and then blocked with 200 μl/well blocking buffer (5% w/v non-fatty milk in PBST) for 2 hours at 37° C. Plates were washed again and incubated with 100 μl/well serially diluted anti-IL4Rα antibodies of the disclosure, the benchmark or negative control hIgG (human immunoglobulin (pH4) for intravenous injection, Hualan Biological Engineering Inc.) (5-fold dilution in 2.5% w/v non-fatty milk in PBST, starting at 66.7 nM) for 40 minutes at 37° C., and then washed 4 times again. Plates containing captured anti-IL4Rα antibodies were incubated with biotin-labeled human IL4Rα-his protein (in house made with SEQ ID NO: 57, 0.14 nM in 2.5% w/v non-fatty milk in PBST, 100 μl/well) for 40 minutes at 37° C., washed 4 times, and incubated with streptavidin conjugated HRP (1:10000 dilution in PBST, Jackson Immuno Research, Cat #016-030-084, 100 μl/well) for 40 minutes at 37° C. After a final wash, plates were incubated with 100 μl/well ELISA substrate TMB (Innoreagents, Cat #TMB-S-002). The reaction was stopped in 10 minutes at 25° C. with 50 μl/well 1M H₂SO₄, and the absorbance was read at 450 nm. Data was analyzed using Graphpad Prism software and EC₅₀ values were reported.
A general note: In an ELISA, binding on a coated surface is turned into a signal by an enzyme label.

Test [2] has as its target T2, human IL4Rα expressed on 293F-IL4Rα cells (human, UniProt P24394 26-825).
T2 construct: whole, on cells; also called cell surface human IL4Rα
Kind of test: flow cytometry on 293F-IL4Rα cells. The protocol: (§2) Then, 2×10⁵ cells per well in 96 well-plates were incubated in 100 μL of the anti-IL4Rα antibodies or controls of various concentrations (starting at 80 nM with a 4-fold serial dilution) in FACS buffer for 40 minutes on ice. […] Following an incubation of 40 minutes at 4° C. in dark, cells were washed three times and resuspended in FACS buffer. Fluorescence was measured using a Becton Dickinson FACS Canto II-HTS equipment. Data was analyzed using Graphpad Prism software and EC₅₀ values were reported.
Background: In flow cytometry, cells or beads pass a laser one at a time.

In test [3] the target is T2, human IL4Rα expressed on 293F-IL4Rα …. Kind of test: flow cytometry, 293F-IL4Rα cells. As to the method:
as §2

The target in test [4] is T1, recombinant human IL4Rα-his protein (in …). Kind of test: capture ELISA, biotin-IL4Rα-his. The protocol: as §1
Test [5] addresses T2, human IL4Rα expressed on 293F-IL4Rα …. Kind of test: flow cytometry, blocks biotin-IL4 binding to 293F-IL4Rα cells. As to the method: Then, 1×10⁵ cells per well in 96 well-plates were incubated in 100 μL of the anti-IL4Rα antibodies or controls of various concentrations (starting at 80 nM with a 4-fold serial dilution) in FACS buffer for 40 minutes on ice. The plates were washed twice with FACS buffer, and added and incubated for 40 minutes at 4° C. in dark with 100 μl/well 1.67 nM biotin-labeled human IL4 protein (Sino biological inc., Cat #11846-HNAE). The plates were washed twice with FACS buffer, and then added and incubated for 40 minutes at 4° C. in dark with 100 μl/well R-Phycoerythrin Streptavidin (1:500 dilution in FACS buffer, Jackson Immunoresearch, Cat #016-110-084). Cells were washed twice and resuspended in FACS buffer. Fluorescence was measured using a Becton Dickinson FACS Canto II-HTS equipment. Data was analyzed using Graphpad Prism software and IC₅₀ values were reported.

Test [6] shares this target. Nature of the test: flow cytometry on 293F-IL4Rα cells. This is another data set of the same source.
Test [7] deals with T3, cynomolgus monkey IL4Rα-his protein (cynomolgus monkey, UniProt A0A2K5V580 33-239).
T3 construct: Bought protein; also called Cynomolgus IL4Rα; Cyno-IL4Rα-his; not shown: his tag
Kind of test: indirect ELISA on coated cynomolgus IL4Rα-his. As to the method: The anti-IL4Rα antibodies' cross-reaction with cynomolgus IL4Rα proteins or cal-IL4Rα-his proteins were measured. Briefly, 96-well micro plates were coated with 2 μg/ml cynomolgus IL4Rα-his protein (Sino biological inc., Cat #90897—C08H) or 0.2 μg/ml cal-IL4Rα-his protein (Custom made by Sino biological inc., Cat #BAX2) in carbonate/bicarbonate buffer (pH 9.6), 100 μl/well, for 2 hours at 37° C. ELISA plates were washed once with wash buffer (PBS+0.05% w/v Tween-20, PBST) and then blocked with 200 μl/well blocking buffer (5% w/v non-fatty milk in PBST) for 2 hours at 37° C. Plates were washed again and incubated with 100 μl/well serially diluted anti-IL4Rα antibodies of the disclosure or controls (0.004-66.7 nM, 5-fold serial dilution in 2.5% w/v non-fatty milk in PBST, starting at 66.7 nM) for 40 minutes at 37° C. […] After a final wash, plates were incubated with 100 μl/well TMB (Innoreagents). The reaction was stopped 3-10 minutes later at 25° C. with 50 μl/well 1M H₂SO₄, and the absorbance was read at 450 nm. Data was analyzed using Graphpad Prism software and EC₅₀ values were reported.

Test [8] addresses T1, recombinant human IL4Rα-his protein (in …). Kind of test: competitive ELISA, blocks biotin-IL4 binding to coated IL4Rα-his. The protocol:
Serially diluted anti-IL4Rα antibodies or the controls (starting at 80 nM with a 4-fold serial dilution) in 2.5% w/v non-fatty milk in PBST, 100 μl per well, were added to the IL4Rα bound plates, and incubated with the human IL4Rα-his proteins at 37° C. for 40 minutes. Plates were washed 4 times using wash buffer, and then added and incubated for 40 minutes at 37° C. with 100 μl/well of 0.56 nM biotin-labeled human IL4 protein (Sino biological inc., Cat #11846-HNAE). Plates were washed again using wash buffer. Thereafter, the plates were added with 100 μl/well of streptavidin conjugated HRP (1:10000 dilution in PBST buffer, Jackson Immunoresearch, Cat #016-030-084) and incubated for 40 minutes at 37° C. Plates were washed again using wash buffer. Finally, TMB was added and the reaction was stopped using 1M H₂SO₄, and the absorbance was read at 450 nm. Data was analyzed using Graphpad Prism software and IC₅₀ values were reported.

For test [9] the target is unchanged. Kind of test: competitive ELISA: coated human IL4Rα-his, blocked ligand biotin human IL4.

B1: mouse antibody B1D2F7D3B5 (antibody, V domains shown)
VH: EVKLVESGGGLVKPGGSLKLSCAASGFTFSSYAMSWVRQTPEKRLEWVASISSGDSTYYLDSVKGRFTISRDNAMNILYLQMSSLRSEDTAVYYCERSGGSAPYWGQGTLVSVSA
VL: QIVLTQSPAIMSASPGEMVTISCSASSSVSYMYWYQQKPGSSPKPWIYRTSNLASGVPARFSGSGSGTSYSLTISSMEAEDAATYYCQQYHSFPLTFGAGTKLELK
notes: Mouse hybridoma mAb
What is called EC50 is the concentration at which the effect is half-maximal. As usually defined, the IC50 is the concentration that inhibits the measured activity by half. For the molecule B1, the EC50 in test [1] turned out to be 0.0644 nM; in [2], 0.246 nM; in test [3], 0.25 nM; in test [4] it was 0.06 nM. The molecule also displayed an IC50 in test [5] of 0.78 nM.

B2: mouse antibody B9D1D11F8D8 (antibody, V domains shown)
VH: EVKLVESGGGLVKPGGSLKLSCAASGFTFSSYAMSWVRQTPEKRLEWVASISSGDSTYYLDSVKGRFTISRDNARNILYLQVSSLRSEDTAMYYCERSGGSAPYWGQGTLVTVSA
VL: QIVLTQSPAIMSASPGDMVTISCSASSSVNYMYWYQQKPGSSPKPWIYRTSNLASGVPARFSGSGSGTSYSLTISSMEAEDAATYYCQQYHSFPLTFGAGTKLELK
notes: Mouse hybridoma mAb
Take B2: the EC50 in test [1] was 0.0703 nM; in test [2] it was 0.221 nM; in test [3], 0.22 nM; in [4], 0.07 nM. This molecule displayed an IC50 in [5] of 0.75 nM.

B3: mouse antibody B8G11F2B7G5E8 (antibody, V domains shown)
VH: EVQLQQSGADLVRPGASVKLSCTASGFNIKDTYMHWVKQRPEQGLEWVGRIDPTNGYTIYASKFQGKATITADTSSNTAYMQLSSLTSGDTAVYHCVSRRPWFAYWGQGTLVTVSA
VL: DILMTQTPLSLPVSLGAQASISCRSSQSIVHSNGNTYLEWYLQKPGQSPKLLIYKVTNRFSGVPDRFSGSGSGTDFTLKISRVEAEDLGIYYCFQGSHVPYTFGGGTKLEIK
notes: Mouse hybridoma mAb; also called Mouse B8G11F2B7G5E8; mAb B8G11F2B7G5E8
For the molecule B3, the EC50 in [6] came out at 0.412 nM; in test [1], 0.0393 nM; in [2], 0.251 nM; in test [3], 0.25 nM; in test [7], 0.291 nM; in test [4], 0.04 nM. In addition, the values for the half-inhibitory concentration (IC50) in test [5], in test [8] and in test [9] were 0.8 nM, 1 nM and 1.64 nM, respectively.

B4: chimeric antibody B8G11F2B7G5E8 (antibody, human IgG4 S228P, kappa, V domains shown)
VH: EVQLQQSGADLVRPGASVKLSCTASGFNIKDTYMHWVKQRPEQGLEWVGRIDPTNGYTIYASKFQGKATITADTSSNTAYMQLSSLTSGDTAVYHCVSRRPWFAYWGQGTLVTVSA
VL: DILMTQTPLSLPVSLGAQASISCRSSQSIVHSNGNTYLEWYLQKPGQSPKLLIYKVTNRFSGVPDRFSGSGSGTDFTLKISRVEAEDLGIYYCFQGSHVPYTFGGGTKLEIKR
notes: Mouse variable domains on human IgG4/kappa; also called Chimeric B8G11F2B7G5E8; chB8G11F2B7G5E8
Regarding B4, in [6], the EC50 amounted to 0.775 nM. Also, the results for the IC50 in test [8] and in test [9] were 1.42 nM and 1.82 nM, respectively.

B5: mouse antibody C2C1A1A1 (antibody, V domains shown)
VH: EVQLVESGGGLVQPGGSLKLSCAASGFTFSTYGMSWVRQTPDKRLELVATINSNGGSTSYPDSVKGRFTISRDNAKNTLYLQMSSLKSEDTAMFYCARFFRFRNAMDYWGQGTSVTVSS
VL: DIQMTQSPASLSASVGETVTITCRTSENIYSYLAWYQQKQGKSPQFLVYNAKTLAEGVPSRFSGSGSGTQFSLNINSLQSEDFGSYYCQHYYGPPTWTFGGGTKLEIK
notes: Mouse hybridoma mAb; also called Mouse C2C1A1A1
B5: the EC50 in test [6] came out at 0.307 nM; in test [1] it was 0.0759 nM; in test [2], 0.159 nM; in [3], 0.16 nM; in test [7] it was 0.329 nM; in test [4], 0.08 nM. Besides, the concentration for half-maximal inhibition (IC50) in test [5] was 0.44 nM; in test [9] it was 1.89 nM.

B6: chimeric antibody C2C1A1A1 (antibody, human IgG4 S228P, kappa, V domains shown)
VH: EVQLVESGGGLVQPGGSLKLSCAASGFTFSTYGMSWVRQTPDKRLELVATINSNGGSTSYPDSVKGRFTISRDNAKNTLYLQMSSLKSEDTAMFYCARFFRFRNAMDYWGQGTSVTVSS
VL: DIQMTQSPASLSASVGETVTITCRTSENIYSYLAWYQQKQGKSPQFLVYNAKTLAEGVPSRFSGSGSGTQFSLNINSLQSEDFGSYYCQHYYGPPTWTFGGGTKLEIKR
notes: Mouse variable domains on human IgG4/kappa; also called Chimeric C2C1A1A1; chC2C1A1A1
In test [6], B6 gave a 50% effective concentration (EC50) of 0.63 nM. In addition, the values for the half-maximal inhibitory concentration (IC50) in test [8] and in test [9] were 2.46 nM and 3.12 nM, respectively.

B7: mouse antibody C2B2F7B7 (antibody, V domains shown)
VH: EVQLVESGGGLVQPGGSLKLSCAASGFTFSTYGMSWVRQTPDKRLELVATINSNGGSTNYPDSVKGRFTISRDNAKNTLYLQMSSLKSEDTAMYYCARFFRIRNAMDYWGQGTSVTVSS
VL: DIQMTQSPASLSASVGETVTITCRASENIYSYLAWYQQKQGKSPQFLVYNAKTLAEGVPSRFSGSGSGTQFSLKINSLQPEDFGSYYCQHYYGTPTWTFGGGTKLEIK
notes: Mouse hybridoma mAb
With B7, the EC50 in test [1] was 0.129 nM; in test [2], 0.183 nM; in [3], 0.18 nM; in test [7], 108 nM; in [4] it was 0.13 nM. This molecule also gave a 50% inhibitory concentration (IC50) in test [5] of 0.4 nM.
